Molecular target: HLA-A2 (recombinant, on Raji-HLA-A2 target cells) (human)
Assay: cell-based or functional assay

B1: HLA-A2 iCAR (inhibitory chimeric antigen receptor; HLA-A2 scFv from hybridoma BB7.2 fused to PD-1 hinge, transmembrane and intracellular domains) (receptor)
chain: EQKLISEEDLQVQLQQSGPELVKPGASVKMSCKASGYTFTSYHIQWVKQRPGQGLEWIGWIYPGDGSTQYNEKFKGKTTLTADKSSSTAYMLLSSLTSEDSAIYFCAREGTYYAMDYWGQGTSVTVSSGGGGSGGGGSGGGGSDVLMTQTPLSLPVSLGDQVSISCRSSQSIVHSNGNTYLEWYLQKPGQSPKLLIYKVSNRFSGVPDRFSGSGSGTDFTLKISRVEAEDLGVYYCFQGSHVPRTFGGGTKLEIKTERRAEVPTAHPSPSPRPAGQFQTLVVGVVGGLLGSLVLLVWVLAVICSRAARGTIGARRTGQPLKEDPSAVPVFSVDYGELDFQWREKTPEPPVPCVPEQTEYATIVFPSGMGTSSPARRGSADGPRSAQPLRPEDGHCSWPL
inhibition of effector T cells expressing the two CARs at a 1:1 ratio (CD107a figure series): 50%
percent inhibition of CD107a expression on CD8 T cells; 100*(1-(CD107a with Raji-A2/CD107a with Raji)), aCAR to iCAR ratio 1:5: 84%

From US20200316120A1 (IMMPACT BIO, published 2020)
